Experimental findings from FireProtDB (doi:10.1111/j.1432-1033.1991.tb16033.x) are described below.

The conditions of this data set: Escherichia coli (strain K12); pH 5.5; 25 °C; GdnHCl; Fluorescence; Sodium acetate 20 mM; NaCl 0.1 M; reversible: yes; whole UniProt chain shown.

B1: Ribonuclease HI wild type, P0A7Y4 (protein)
chain: MLKQVEIFTDGSCLGNPGPGGYGAILRYRGREKTFSAGYTRTTNNRMELMAAIVALEALKEHCEVILSTDSQYVRQGITQWIHNWKKRGWKTADKKPVKNVDLWQRLDAALGQHQIKWEWVKGHAGHPENERCDELARAAAMNPTLEDTGYQVEV
Regarding B1, the denaturant m value came out at 5.17 kcal/mol/M, the “denaturant midpoint (higher = more stable)” value was 1.79 M and the unfolding free energy stood at 9.26 kcal/mol.
